# Results reported in the supplement of paper PMC6755084.
# B1: minF1; the commonest letter at each place (parent)
# chain: GAGACCGCAACTGAAAAGTTGTTATCAGAAATGGATGGGTTGAATTTCTGCACGTAGAAGCAAAAGGC
# B2: minF1; a variant is named by its letters at N, in order (parent)
# chain: GAGACCGCAACTGAAAAGTTGTTNNNNAANNNNGGNTNNATTTCTGCACGTAGAAGCAAAAGGC
# Variants of: B1
# Assay: fraction ligated after 30 min (ligated reads / total reads); higher = more ligase activity
# Conditions: with F1*subA RNA substrate (template-directed ligation), 42 °C
# Procedure: (§1)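 Chip-synthesised pool of minF1 ligase ribozyme variants (single and double substitutions, single to quadruple deletions, bulge and P2 designed variants) was transcribed with T7 and reacted as a pool with excess substrate F1*subA for 30 min at 42 C in 50 mM EPPS pH 8.5, 25 mM MgCl2. Ligated and unligated RNAs were separated by PAGE, barcoded by RT and deep sequenced; fraction ligated = ligated reads / total reads, relative activity = FL / FL of wild-type minF1 (0.76); sequencing FL correlated with PAGE (R2 = 0.98). Sequences are the DNA template of the ribozyme.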
row,Variant,fraction ligated
1,T23A A31T,0.325
2,T23A A31G,0.264
3,T23A A31C,0.181
4,T23A,0.215
5,T23A A30T,0.132
6,T23A A30G,0.358
7,T23A A30C,0.126
8,T23A A24G,0.00909
9,T23A A24T,0.0331
10,T23A A24C,0.0188
11,T23A A27C,0.0462
12,T23A A27T,0.488
13,T23A A27G,0.234
14,T23A A29T,0.156
15,T23A A29C,0.15
16,T23A A29G,0.189
17,T23A A35T,0.0125
18,T23A A35C,0.00609
19,T23A A35G,0.0122
20,T23A A43T,0.00536
21,T23A A43G,0.00242
22,T23A A43C,0.00617

# Variants of: B2
# Assay: as above
# Conditions: with F1*subA RNA substrate (template-directed ligation), 42 °C
# Procedure: as §1
row,Variant,fraction ligated
1,ATGAGGATTGA,0.00566
2,ATCGATGGGGT G34A G35T T37G A40T,0.00147
3,ATCAATGAGTG G34T,0.00509
4,ATCAATGAGTA G34T,0.0033
5,ATCGGGTGTGA,0.00323
6,ATGATGTGTGA,0.0027
7,ATCATGATGTG A28G,0.0138
8,ATCAATGGGTA A28G,0.000828
9,ATCAATGGTGA A28G,0.00319
10,ATGATGGAGTT G34T T37G,0.00184
11,ATCAAAGAGTA A28G,0.0017
12,ATCAAGGGTGA,0.00247
13,ATCAGGAGTGA,0.00543
14,ATCGGGATGTA,0.00428
15,ATCGGGATGTG,0.0285
16,ATCAAATGGTT A28G G34T T37G A40G,0.000795
17,ATCATGGATGA A28G,0.00362
18,ATCAGGATTGA A29T,0.00634
19,ATCAATGGTGA,0.0039
20,ATGAGGATGTG A29T,0.00971
21,ATGAGATGTGA A29T,0.00278
22,ATGAGATGTGA A29G,0.00416
23,ATCATGGAGTA G34T,0.00594
24,ATCAAAGATGA A28G,0.00211
25,ATCAATGAGTG A28G G34T,0.00581

row,Variant,fraction ligated
1,ATCGGGAGTGA,0.00227
2,ATCAAGGAGTA A28G,0.00255
3,ATCGAGGATGA,0.00383
4,ATCAAATAGTT A28G G34T T37G,0.00135
5,ATCGATGGGTT G34A T37G A40G,0.00135
6,ATCAATGGGTT G34A G35T T37G A40G,0.00189
7,ATCAAATTTGA A28G,0.00721
8,ATCATGGTGTG A28G,0.0033
9,ATGAGGATGTA,0.00328
10,ATGAGGATGTG,0.00619
11,ATCAAATGGGT A28G G35T T37G A40T,0.00169
12,ATGAGATGTGA,0.00646
13,ATCGGGATTGA,0.00341
14,ATCAAAGGGTT A28G G34A T37G A40G,0.000889
15,ATCAATGTGTG A28G,0.00324
16,ATCATGATTGA A28G,0.00281
17,ATCAATGGGTG,0.00492
18,ATCAATGGGTA,0.00273
19,ATCAAGTGTGA A28G,0.00275
20,ATCAAATAGTA A28G,0.00232
21,ATCGATGAGTT G34T T37G A40G,0.00104
22,ATCGGATGTGA A29G,0.00359
23,ATCGGATGTGA A29T,0.00285
24,ATCAAGGAGTT G34T T37G,0.00324
25,ATGATGGAGTA,0.00203

row,Variant,fraction ligated
1,ATGATGGAGTG,0.00409
2,ATCAAGATGTG A28G,0.0128
3,ATCATGGAGTA,0.00426
4,ATCATGGAGTG,0.00597
5,ATCGTGTGTGA,0.00325
6,ATCATGGAGTG G34T,0.0119
7,ATCAGGTGTGA A28G A29T,0.00216
8,ATCAAGATGTA A28G,0.00207
9,ATCAATGGGGT G34A G35T T37G A40T,0.0016
10,ATGATGGATGA,0.00302
11,ATCAATAGTGA A28G,0.00213
12,ATGAGATGTGA A28T A29G,0.016
13,ATCAAGTGTGA,0.00229
14,ATGAGGAGTGA A29T,0.0018
15,ATCAAATGGTT A28G G35T T37G A40G,0.00187
16,ATCAAATGGTT A28G T37G A40G,0.0011
17,ATCAAATGTGA,0.00252
18,ATCATGGTTGA,0.0043
19,ATCAATGTTGA,0.00356
20,ATCAAATAGTG A28G,0.00674
21,ATCATATGTGA A28G,0.00411
22,ATCAATGTGTA A28G,0.00287
23,ATCAATGATGA A28G,0.000976
24,ATCGTGGAGTA,0.00217
25,ATCGTGGAGTG,0.00496

row,Variant,fraction ligated
1,ATCAAATGGTT A28G G34A T37G,0.0014
2,ATCAATGAGTA A28G,0.00241
3,ATCAATTGTGA,0.00256
4,ATCAAGGAGTT A28G G34T T37G,0.00162
5,ATCAATGGGTG G34A,0.00542
6,ATCAATGGGTG G34T,0.00622
7,ATCAATATGTA,0.00288
8,ATCAATATGTG,0.00446
9,ATCAAAGGGTT A28G G34A T37G,0.00203
10,ATCAATGAGTG,0.00492
11,ATCAATGAGTA,0.00236
12,ATCAAATGGTT A28G G35A T37G,0.00104
13,ATCAAAGGGTA A28G,0.00291
14,ATCAAATGGTA A28G G34A,0.00267
15,ATCAAATGGTA A28G G34T,0.00212
16,ATCGAATGTGA,0.00581
17,ATCATGGAGTT G34T T37G,0.00293
18,ATCGAGGTGTG,0.00858
19,ATCGAGGTGTA,0.00324
20,ATCGATGTGTG,0.00543
21,ATCGATGTGTA,0.00271
22,ATCAATGGGTG A28G,0.00414
23,ATCAAATAGTG A28G G34T,0.0037
24,ATGAGGTGTGA,0.00168
25,ATCAAAGAGTT A28G G34T T37G A40G,0.00143

row,Variant,fraction ligated
1,ATCAATGGGTT A28G G34T T37G A40G,0.00157
2,ATCAAGATGTA,0.00295
3,ATCAAGATGTG,0.0129
4,ATCAAAGGGTG A28G,0.0051
5,ATCAGATGTGA,0.00333
6,ATCGTGGAGTT G34T T37G A40G,0.00133
7,ATCGATGGGTT G34T T37G A40G,0.00104
8,ATCATGATGTG,0.0143
9,ATCATGATGTA,0.00345
10,ATCGTGGAGTT G34T T37G,0.00145
11,ATCGATGGGTG G34A,0.00444
12,ATCGATGGGTG G34T,0.00494
13,ATCAAGGAGTG,0.00548
14,ATCAAGGAGTA,0.00502
15,ATCAGGATTGA A28G,0.0019
16,ATCATGGAGTT A28G G34T T37G,0.00165
17,ATCAATGGGTT G34T T37G A40G,0.00223
18,ATCGATGGGTT G34T T37G,0.00156
19,ATCAGATGTGA A29G,0.0024
20,ATCAGATGTGA A29T,0.00586
21,ATCAGATGTGA A28G A29G,0.00309
22,ATCAGATGTGA A28G A29T,0.00278
23,ATCATGAGTGA A28G,0.00204
24,ATCGGGATGTG A29T,0.0354
25,ATCAGGATTGA,0.00379

row,Variant,fraction ligated
1,ATCAAAGGGTA A28G G34A,0.00347
2,ATCAAAGGGTA A28G G34T,0.00211
3,ATGATGATTGA,0.00379
4,ATGAGGATGTA A29T,0.00295
5,ATCAATGGGTT A28G G34A T37G,0.00259
6,ATCGATGGGTT G34A T37G,0.00243
7,ATGAGGAGTGA,0.00532
8,ATCGAGGAGTG,0.0042
9,ATCGAGGAGTA,0.00327
10,ATCGTGGATGA,0.00177
11,ATCGATGGGTA G34A,0.00165
12,ATCGATGGGTA G34T,0.00207
13,ATCAATATTGA A28G,0.00433
14,ATCAAGGAGTG A28G G34T,0.00593
15,ATCATGATTGA,0.00257
16,ATCGTGGGTGA,0.00142
17,ATCATGAGTGA,0.00331
18,ATCAGGATTGA A28G A29T,0.00153
19,ATGATGAGTGA,0.00204
20,ATCAGGATGTA A29T,0.00407
